Source: paper PMC7759300 (The Journal of Cell Biology, 2020)

How the values were obtained:
SAS-6 [1] = target: SAS-6 (UniProt Q6UVJ0); experiment: GFP-Trap co-IP, SAS-6 blot; settings: reference: wild type; sites S325
SAS-6 [2] = target: SAS-6 (UniProt Q6UVJ0); experiment: GFP-Trap co-IP, SAS-6 blot; settings: reference: wild type; sites S325; remark: listed apart in the source
Strep-NEDD1 = Strep-NEDD1 (human, UniProt Q8NHV4 1-660); experiment: pull-down
Chain of Strep-NEDD1 (Q8NHV4 whole entry): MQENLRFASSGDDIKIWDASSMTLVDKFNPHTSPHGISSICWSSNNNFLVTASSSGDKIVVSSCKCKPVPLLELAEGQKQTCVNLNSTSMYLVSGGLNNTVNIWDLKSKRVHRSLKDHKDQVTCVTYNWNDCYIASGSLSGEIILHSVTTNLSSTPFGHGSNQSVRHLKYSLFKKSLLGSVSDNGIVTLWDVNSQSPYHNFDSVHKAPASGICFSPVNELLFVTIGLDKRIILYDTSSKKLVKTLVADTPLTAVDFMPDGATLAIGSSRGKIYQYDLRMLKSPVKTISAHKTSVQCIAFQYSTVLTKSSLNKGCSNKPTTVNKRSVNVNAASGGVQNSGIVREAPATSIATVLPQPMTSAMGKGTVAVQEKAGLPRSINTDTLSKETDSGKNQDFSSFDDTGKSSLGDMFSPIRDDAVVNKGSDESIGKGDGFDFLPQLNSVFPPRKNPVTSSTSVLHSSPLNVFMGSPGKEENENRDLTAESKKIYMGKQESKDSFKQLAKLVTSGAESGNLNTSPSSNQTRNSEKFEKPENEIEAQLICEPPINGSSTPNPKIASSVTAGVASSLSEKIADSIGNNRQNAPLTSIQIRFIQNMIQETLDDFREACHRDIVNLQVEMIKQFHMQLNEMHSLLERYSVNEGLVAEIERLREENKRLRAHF

Row | binding against the reference (SAS-6 [1]) | binding against the reference (SAS-6 [2]) | binding result (Strep-NEDD1) | Molecule
1 | weaker | weaker |  | NEDD1 (from UniProt Q8NHV4) S325A
2 |  |  | binds | GFP-SAS-6-Strep (natural protein) MSQVLFHQLVPLQVKCKDCEERRVSIRMSIELQSVSNPVHRKDLVIRLTDDTDPFFLYNLVISEEDFQSLKFQQGLLVDFLAFPQKFIDLLQQCTQEHAKEIPRFLLQLVSPAAILDNSPAFLNVVETNPFKHLTHLSLKLLPGNDVEIKKFLAGCLKCSKEEKLSLMQSLDDATKQLDFTRKTLAEKKQELDKLRNEWASHTAALTNKHSQELTNEKEKALQAQVQYQQQHEQQKKDLEILHQQNIHQLQNRLSELEAANKDLTERKYKGDSTIRELKAKLSGVEEELQRTKQEVLSLRRENSTLDVECHEKEKHVNQLQTKVAVLEQEIKDKDQLVLRTKEAFDTIQEQKVVLEENGEKNQVQLGKLEATIKSLSAELLKANEIIKKLQGDLKTLMGKLKLKNTVTIQQEKLLAEKEEKLQKEQKELQDVGQSLRIKEQEVCKLQEQLEATVKKLEESKQLLKNNEKLITWLNKELNENQLVRKQDVLGPSTTPPAHSSSNTIRSGISPNLNVVDGRLTYPTCGIGYPVSSAFAFQNTFPHSISAKNTSHPGSGTKVQFNLQFTKPNASLGDVQSGATISMPCSTDKENGENVGLESKYLKKREDSIPLRGLSQNLFSNSDHQRDGTLGALHTSSKPTALPSASSAYFPGQLPNS
